Measured values: the supplement of paper PMC9170038

Test system: K4 kissing-loop RNA reporter
Assay: apparent KD of K4 kissing-loop reporter; higher = weaker reporter binding
Settings: Eterna round: R107
Description: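 RNA-MaP round R107: designed RNA switches with theophylline, tryptophan, arginine or FMN aptamers are transcribed on-chip within common flanks. They are titrated with a labelled K4 kissing-loop RNA reporter in RNA-MaP buffer (100 mM Tris pH 7.5, 80 mM KCl, 4 mM MgCl2), without ligand or with the indicated ligand. Median apparent KD per design.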

[1] = input ligand: theophylline 20 uM
[2] = input ligand: tryptophan 2.4 mM
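Note: bound reporter read as fluorescence of individual clusters on recovered sequencing chips by microscopy, with normalized cluster intensities fitted with a binding model.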

Sequence	apparent KD of K4 kissing-loop reporter (input ligand: FMN 200 uM)	apparent KD of K4 kissing-loop reporter (input ligand: arginine 13.2 mM)	apparent KD of K4 kissing-loop reporter (input ligand: none)	apparent KD of K4 kissing-loop reporter [1]	apparent KD of K4 kissing-loop reporter [2]
CAUUCAGUGAUGUUGGAAGGCGAGCGGGAUACCAGCGGAGACUCACGCCCUUGGCAGCCCACAUAUCCCAGGUAGAUAAUAGUUC [Same State - Theophylline A (Freestyle 6)]	237 nM	139 nM	203 nM	189 nM	188 nM
CAUUCGAAAUGCAGUGAUGUUGCAACUGAUACCAGUAUCGAAAGAUACCCUUGGCAGCGGAAAACCGCUACGUAUUUUUUGAAUG [Ex Theophylline A K4 25]	257 nM	317 nM	270 nM	356 nM	253 nM
CAUUGUACACGGUGCGAAGACCCAAUGGAUACCAGCAAUACAUUAUGCCCUUGGCAGCCAAGAGUGAUGUUCGACGGACUAGAUU [theeternabot_sameState_KL_Theo_A_4]	249 nM	175 nM	290 nM	321 nM	233 nM
CCAUCGCUAUUCGAUACCAGCUACUUAGUGAUGUUAAGUUAAAAUCCAUUGUAGAUGGAAAGCCCUUGGCAGCGAAUAGUGAUGG [Theophylline B K4 22]	440 nM	398 nM	465 nM	210 nM	410 nM
CCAUCGCUAUUCGAUACCAGCUACUUAGUGAUGUUAAGUUUUUACCCACUGUAGGUGGGAAGCCCUUGGCAGCGAAUAGUGAUGG [Theophylline B K4 27]	240 nM	203 nM	239 nM	151 nM	209 nM
CCAUCGCUAUUCGAUACCAGUCAUAAAAUCUUUGGUUAAAUAAAGGAGUGAUGUUCCCAAGACCCUUGGCAGCGAAUAGUGAUGG [Theophylline B K4 7]	229 nM	227 nM	217 nM	266 nM	213 nM
CCAUUCAUUUACGAUACCAGUCUAAUAUAUUGAAUCAAAACCCUCGCCGAGUGAUGUUCGGACCCUUGGCAGCGUCUGCGAGAGG [ddrdkmullin]	596 nM	548 nM	677 nM	543 nM	519 nM
CCCAAGGGCCUACCGGUAUGAUGGACGGAUACCAGAGGCGAAAGCCUCCCUUGGCAGCCGGGUGUAGUGAUGUUACUCCGGUAGU	75.1 nM	65.8 nM	75 nM	78.9 nM	72 nM
CCGAUACAUUAUUCUACGGCCGAGAGUGAUACCAGCCAUAUUUAUGGCCCUUGGCAGCGCAGAUGCAGUGAUGUUGCAUACUUAC [Same State Theophylline A GF 19]	85.7 nM	119 nM	91.5 nM	115 nM	73.7 nM
CCGGCCCGGCCGGAUACCAGUGCGCCGCAGGGAACGGCGGGCCCAGAGUGAUGUUCGGGACACCCUUGGCAGCCGCCUGGGUCGC [#2 Same State - Theophylline B Attempt #27 (HarryS)]	286 nM	123 nM	231 nM	225 nM	245 nM
CCGUAGAACGGAAGGAGCGCCAUAGAUAAGAAUUCCGUAAGUGAGUGAUGUUCACACAAAUGGCAGGUAGGUCGCCGUUAUUUAG [Arg B Ex t5]	178 nM	194 nM	220 nM	202 nM	201 nM
CCUAUCUCAUACGAUACCAGUCAAUGAUCUUUGAUCAAUGCCAUCACCGAGUGAUGUUCGGACCCUUGGCAGCGUAUGGGAUAGG [whbob_Ex_Theo_B_sa102]	267 nM	212 nM	269 nM	364 nM	251 nM
CCUCUCCUUGAUAGUGAUGUUAUCAAGGACAAGGAUAUCAUCUCAAUGAGAAGGUGUCCUUGAUAACAUGGAGGUCUGAAACAGA [Omei KL FMN A Exc C v1]	138 nM	126 nM	136 nM	125 nM	122 nM
CCUGCUACGUAAGGAUAUGGAAAUGAGUGAUGUUUAGAGAUAUGGUCCAGGUUUAGUCAUCAUAGACCAGAAGGUACAUCGGGCG [theeternabot_exclusion_KL_FMN_B_8]	825 nM	321 nM	588 nM	364 nM	400 nM
CCUUCUCUUGAUAGUGAUGUUAUCAAGGGCAAGGAUAUCAUCUCAAUGAGAAGGUGUCCUUGAUAACAUGGAGGUCUGAAACAGA [Omei KL FMN A Exc C v4]	157 nM	165 nM	209 nM	159 nM	206 nM
CGAACCUCCAAAGGAUAUCUCGUUUAGUGAUGUUUUGCGUAGUAUCAGGAUAGAAUAUUGAUUCAGAGAGAAGGUUGACGUUGGU [theeternabot_exclusion_KL_FMN_B_14]	733 nM	428 nM	684 nM	511 nM	537 nM

Sequence	apparent KD of K4 kissing-loop reporter (input ligand: FMN 200 uM)	apparent KD of K4 kissing-loop reporter (input ligand: arginine 13.2 mM)	apparent KD of K4 kissing-loop reporter (input ligand: none)	apparent KD of K4 kissing-loop reporter [1]	apparent KD of K4 kissing-loop reporter [2]
CGAAGACUUAUGGAUACCAGCCUAGCAUCAGGUGGUUCAGAGGCAUGCAGUGAUGUUGCAGGCCCUUGGCAGCCAUGGUACUAGA [Xelebi]	76 nM	71.3 nM	70 nM	79.8 nM	79.7 nM
CGACGGAGUGAUGUUUCGUGGUAUGCUGAUACCAGAUGAAACAGCGUCCCUUGGCAGCAGCAUACGCCAAGGAUAAUAUCCUAGU [Theo B SS t6]	1200 nM	611 nM	1770 nM	531 nM	604 nM
CGCAAGCAGCCAGUGAUGUUGGCCGCCUUGCGAGGACCGGUACGGCCGCCACUCGAAGGCGGCUACUGAUAAUCCGUCUAACGGA [KL-XTryp-A15]	107 nM	85.4 nM	102 nM	92.4 nM	111 nM
CGCAGUGAUGUUGCGAGUAGAUACAGGGAAGGAGCGCGGUAGUACGCAGGUAGGUCGCCCACGCAGUGAUGUUGCGUCAUAGGGU [Exclusion Arginine A GF6]	103 nM	93.1 nM	91 nM	98.6 nM	95.7 nM
CGCCGAAAGGCGAGCGCUCCCACUCCGGAAGGAGCGCCCGAAAGGGCAGGUAGGUCGCCGGAGUGAUGUUCCGGUGGAGGGCUCG [#2 Exclusion - Arginine A Attempt #30 (Inspired by Omei)]	177 nM	167 nM	817 nM	212 nM	296 nM
CGCGCCCGGCCGGAUACCAGUGACCCGCUGGGAACCGCGGGCCCAGAGUGAUGUUCGGGACACCCUUGGCAGCCGCCUGGGCGUG [#2 Same State - Theophylline B Attempt #5 (HarryS)]	1110 nM	364 nM	841 nM	738 nM	550 nM
CGCUGGAGUGAUGUUCCAGCUUCUACGGAUACCAGCCACGCCAGCGGCCCUUGGCAGCCGCAAAUUGCAGUGAUGUUGUGAUGCC [Same State Theophylline A GF 4]	314 nM	278 nM	312 nM	312 nM	283 nM
CGCUUUGCGUCCGGUAGUGAUGUUACCAAGCGAGGACCGGUACGGCCGCCACUCGAGUGACAGACGUACUGGUAUCACCCGCUUU	223 nM	229 nM	248 nM	235 nM	208 nM
CGGAUGUAGUGAUGUUAUAUUAGAUGUAGACGAGGACCGGUACGGCCGCCACUCGUGACGGCUGCUAGCGCGUUGCGAGGUGUGC [ExTryptoA.Cm]	729 nM	575 nM	657 nM	690 nM	603 nM
CGGGAAUUAGGUAUCGUCGAAAGCAAGAACCGAGGACCGGUACGGCCGCCACUCGCACCAGUGAUGUUGGUACAUUUGGUAUCCG [theeternabot_sameState_KL_Trp_A_31]	115 nM	112 nM	134 nM	103 nM	132 nM
CGUAGAUACUGAGGAUAUCAGAAAUCUGAUAUCAUCAGAGGUCUGAGUGAUGUUCAGAUGCGACUCUGAGAAGGCAGUAGGAGUC [FMN B Ex t2]	134 nM	107 nM	131 nM	123 nM	115 nM
CGUGAGUGCCGACGGUCAUCGGUCCAUGCACGAGGACCGGUACGGCCGCCACUCGAGCGUGGCAGUGAUGUUGCCAGCGCACUAA [Oninvexece]	114 nM	89.5 nM	101 nM	98.5 nM	85.6 nM
CGUGCCCAGCCGGAUACCAGUGACCCGCUGGGAACCGCGGGCCCAGAGUGAUGUUCGGGACACCCUUGGCAGCCGCCUGGGCGGU [#2 Same State - Theophylline B Attempt #11 (HarryS)]	1170 nM	343 nM	584 nM	1190 nM	791 nM
CGUUUAUAGCAGGAUACCAGUACCCAUAAAGUACGUUAAUAGUAGAGUGAUGUUCUAAAGUACCCUUGGCAGCUUCCCGUGACCG [ExTheophylB.V]	106 nM	158 nM	129 nM	142 nM	83.3 nM
CGUUUAUAGCAGGAUACCAGUACCCAUAAAGUACGUUAAUAGUAGAGUGAUGUUCUAAAGUACCCUUGGCAGCUUCCCGUGACUG [ExTheophylB.U]	65.3 nM	116 nM	79.5 nM	99.8 nM	52.9 nM
